Measured values published in the supplement of paper PMC10201428.
± gives the standard deviation of the averaged measurements.

Assays:
[1] = tested on: VchCAST RNA-guided transposition machinery (E. coli BL21(DE3) host, lacZ target); assay: relative integration efficiency (T-RL orientation) vs wild-type transposon end (log2 (normalized fold change)); transposon end mutated: right end (5 bp flank + 75 bp right end); higher = more efficient transposition
Method in brief: (§1)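 In E. coli BL21(DE3), a T7-driven effector plasmid was paired with a pUC57 mini-transposon donor containing 1549 left-end or 1849 right-end barcoded transposon variants. Cells grew on plates with 0.1 mM IPTG at 37°C for 18 h. Relative integration efficiency was derived from Illumina reads of genomic integration junctions against input plasmids, as a log-transformed output/input barcode fold change normalised to reference barcodes.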

[2] = tested on: VchCAST RNA-guided transposition machinery (E. coli BL21(DE3) host, lacZ target); assay: relative integration efficiency (T-LR orientation) vs wild-type transposon end (log2 (normalized fold change)); transposon end mutated: right end (5 bp flank + 75 bp right end); higher = more efficient transposition
Method in brief: as §1

Row | Sequence | relative integration efficiency (log2) [1] | relative integration efficiency (log2) [2]
1 | ACATTTGTTGATACAACCATAAAATGATAATTACACCCATAAATTGATACGTATCACACCCATAAATTGATATTGCCTCTGATCATAGTCAGACCAACATTGCTACGACCCGTATTCGCACCGACAC | -0.704 ± 0.012 | -0.44 ± 0.48
2 | ACATTTGTTGATACAACCATAAAATGATAATTACACCCATAAATTGATATAATTCACACCCATAAATTGATATTGCCTCTGATCATAGTCAGACCAACATTGCTACGACCCGTATTCGCACCGACAC | -0.233 ± 0.14 | 0.18 ± 0.19
3 | ACATTTGTTGATACAACCATAAAATGATAATTACACCCATAAATTGATATATATCACACCCATAAATTGATATTGCCTCTGATCATAGTCAGACCAACATTGCTACGACCCGTATTCGCACCGACAC | -0.313 ± 0.16 | 4.91e-05 ± 0.14
4 | ACATTTGTTGATACAACCATAAAATGATAATTACACCCATAAATTGATATCACACCCATAAATTGATATTGCCTCTGATCATAGTCAGACCAACATTGCTACGACCCGTATTCGCACCGACACTGAC | -1.06 ± 0.31 | 2.45 ± 0.18
5 | ACATTTGTTGATACAACCATAAAATGATAATTACACCCATAAATTGATATTGCTCACAACCATAAAATGATAATTACTCTGATCATAGTCAGACCAACATTGCTACGACCCGTATTCGCACCGACAC | -0.532 ± 0.27 | 0.106 ± 0.059
6 | ACATTTGTTGATACAACCATAAAATGATAATTACACCCATAAATTGATATTGCTCACAACCATAAAGTGATATTTACTCTGATCATAGTCAGACCAACATTGCTACGACCCGTATTCGCACCGACAC | -0.424 ± 0.093 | 0.269 ± 0.25
7 | ACATTTGTTGATACAACCATAAAATGATAATTACACCCATAAATTGATATTGCTCACAACCATAAGTTGATATTTTCTCTGATCATAGTCAGACCAACATTGCTACGACCCGTATTCGCACCGACAC | -0.473 ± 0.17 | 0.538 ± 0.11
8 | ACATTTGTTGATACAACCATAAAATGATAATTACACCCATAAATTGATATTGCTCACAACCATATATTGATATCTCCTCTGATCATAGTCAGACCAACATTGCTACGACCCGTATTCGCACCGACAC | -0.74 ± 0.17 | 0.579 ± 0.21
9 | ACATTTGTTGATACAACCATAAAATGATAATTACACCCATAAATTGATATTGCTCACACCCATAAATTGATAATTACTCTGATCATAGTCAGACCAACATTGCTACGACCCGTATTCGCACCGACAC | -0.432 ± 0.2 | 0.634 ± 0.033
10 | ACATTTGTTGATACAACCATAAAATGATAATTACACCCATAAATTGATATTGCTCACACCCATAAATTGATATTGCCTCTGATCATAGTCAGACCAACATTGCTACGACCCGTATTCGCACCGACAC | -0.394 ± 0.045 | 0.786 ± 0.29
11 | ACATTTGTTGATACAACCATAAAATGATAATTACACCCATAAATTGATATTGCTCAGTGGGTATTTAACTATAACGCTCTGATCATAGTCAGACCAACATTGCTACGACCCGTATTCGCACCGACAC | -0.891 ± 0.23 | 2.58 ± 0.34
12 | ACATTTGTTGATACAACCATAAAATGATAATTACACCCATAAATTGATCATTATCACCCCCAATTTAACTATAACGCTCTGATCATAGTCAGACCAACATTGCTACGACCCGTATTCGCACCGACAC | -1.35 ± 0.22 | 1.9 ± 0.065
13 | ACATTTGTTGATACAACCATAAAATGATAATTACACCCATAAATTGATCCGGATCACACCCATAAATTGATATTGCCTCTGATCATAGTCAGACCAACATTGCTACGACCCGTATTCGCACCGACAC | -0.929 ± 0.16 | -0.388 ± 0.14
14 | ACATTTGTTGATACAACCATAAAATGATAATTACACCCATAAATTGATCCGGCGACACAAACGCCCGGTCGCGGTAAGAGGATCATAGTCAGACCAACATTGCTACGACCCGTATTCGCACCGACAC | -0.942 ± 0.11 | 2.09 ± 0.1
15 | ACATTTGTTGATACAACCATAAAATGATAATTACACCCATAAATTGATCCTTATCACACCCATAAATTGATATTGCCTCTGATCATAGTCAGACCAACATTGCTACGACCCGTATTCGCACCGACAC | -0.973 ± 0.3 | -0.418 ± 0.47
16 | ACATTTGTTGATACAACCATAAAATGATAATTACACCCATAAATTGATTCACACCCATAAATTGATATTGCCTCTGATCATAGTCAGACCAACATTGCTACGACCCGTATTCGCACCGACACTGACT | -1.49 ± 0.24 | 2.09 ± 0.12

Row | Sequence | relative integration efficiency (log2) [1] | relative integration efficiency (log2) [2]
17 | ACATTTGTTGATACAACCATAAAATGATAATTACACCCATAAATTGATTTAAATCACACCCATAAATTGATATTGCCTCTGATCATAGTCAGACCAACATTGCTACGACCCGTATTCGCACCGACAC | -0.801 ± 0.11 | -0.261 ± 0.15
18 | ACATTTGTTGATACAACCATAAAATGATAATTACACCCATAAATTGATTTTTATCACACCCATAAATTGATATTGCCTCTGATCATAGTCAGACCAACATTGCTACGACCCGTATTCGCACCGACAC | -0.629 ± 0.28 | 0.0005 ± 0.35
19 | ACATTTGTTGATACAACCATAAAATGATAATTACACCCATAAATTGCGAATTATCACACCCATAAATTGATATTGCCTCTGATCATAGTCAGACCAACATTGCTACGACCCGTATTCGCACCGACAC | -0.3539 ± 0.00067 | -0.682 ± 0.11
20 | ACATTTGTTGATACAACCATAAAATGATAATTACACCCATAAATTGCGCCGGCGACACAAACGCCCGGTCGCGGTAAGAGGATCATAGTCAGACCAACATTGCTACGACCCGTATTCGCACCGACAC | -1.38 ± 0.23 | 1.62 ± 0.053
21 | ACATTTGTTGATACAACCATAAAATGATAATTACACCCATAAATTGCGCCTTATCACACCCATAAATTGATATTGCCTCTGATCATAGTCAGACCAACATTGCTACGACCCGTATTCGCACCGACAC | -1.39 ± 0.2 | -0.939 ± 0.25
22 | ACATTTGTTGATACAACCATAAAATGATAATTACACCCATAAATTGTAAATTATCACACCCATAAATTGATATTGCCTCTGATCATAGTCAGACCAACATTGCTACGACCCGTATTCGCACCGACAC | -0.602 ± 0.1 | -0.553 ± 0.24
23 | ACATTTGTTGATACAACCATAAAATGATAATTACACCCATAAATTGTATTTTATCACACCCATAAATTGATATTGCCTCTGATCATAGTCAGACCAACATTGCTACGACCCGTATTCGCACCGACAC | -0.924 ± 0.063 | -0.327 ± 0.39
24 | ACATTTGTTGATACAACCATAAAATGATAATTACACCCATAAATTTATTATTATCACACCCAATTTAACTATAACGCTCTGATCATAGTCAGACCAACATTGCTACGACCCGTATTCGCACCGACAC | -2.3 ± 0.59 | 1.56 ± 0.26
25 | ACATTTGTTGATACAACCATAAAATGATAATTACACCCATAAATTTCGCATTATCACACCCATAAATTGATATTGCCTCTGATCATAGTCAGACCAACATTGCTACGACCCGTATTCGCACCGACAC | -1.91 ± 0.14 | -1.39 ± 0.6
26 | ACATTTGTTGATACAACCATAAAATGATAATTACACCCATAAATTTCGCCGGCGACACAAACGCCCGGTCGCGGTAAGAGGATCATAGTCAGACCAACATTGCTACGACCCGTATTCGCACCGACAC | -2.05 ± 0.15 | 0.788 ± 0.1
27 | ACATTTGTTGATACAACCATAAAATGATAATTACACCCATAAATTTCTAATTATCACACCCATAAATTGATATTGCCTCTGATCATAGTCAGACCAACATTGCTACGACCCGTATTCGCACCGACAC | -0.945 ± 0.17 | -0.772 ± 0.23
28 | ACATTTGTTGATACAACCATAAAATGATAATTACACCCATAACGGTATAATTATCACACCCATAAATTGATATTGCCTCTGATCATAGTCAGACCAACATTGCTACGACCCGTATTCGCACCGACAC | -1.01 ± 0.024 | -1.21 ± 0.31
29 | ACATTTGTTGATACAACCATAAAATGATAATTACACCCATAACGGTCGCCGGCGACACAAACGCCCGGTCGCGGTAAGAGGATCATAGTCAGACCAACATTGCTACGACCCGTATTCGCACCGACAC | -2.35 ± 0.24 | 0.674 ± 0.11
30 | ACATTTGTTGATACAACCATAAAATGATAATTACACCCATAACGTGATAATTATCACACCCATAAATTGATATTGCCTCTGATCATAGTCAGACCAACATTGCTACGACCCGTATTCGCACCGACAC | 0.496 ± 0.076 | 0.32 ± 0.18
31 | ACATTTGTTGATACAACCATAAAATGATAATTACACCCATAATAACATAATTATCACACCCATAAATTGATATTGCCTCTGATCATAGTCAGACCAACATTGCTACGACCCGTATTCGCACCGACAC | -2.11 ± 0.092 | -1.45 ± 0.04
32 | ACATTTGTTGATACAACCATAAAATGATAATTACACCCATAATATGATAATTATCACACCCATAAATTGATATTGCCTCTGATCATAGTCAGACCAACATTGCTACGACCCGTATTCGCACCGACAC | -0.297 ± 0.039 | -0.175 ± 0.045
